The target of this assay is T1, Biotin-STn(DT*R)-20 (Homo sapiens, UniProt P15941).
T1 construct: Synthesis of MUC1 Tn20-Mer Glycopeptide; made in house; host or cells: chemical solid-phase synthesis
The assay is described as follows: Affinity of antibody, Biacore T100, Sensor Chip SA. The format is binding. Particulars: Biotin-STn(DT*R)-20 on Sensor Chip SA; read-out: dissociation constant KD. The protocol: Biotin-STn(DT*R)-20 was solid-phased on a Sensor Chip SA (manufactured by GE Healthcare), and a dissociation constant of 12D10 was analyzed using Biacore T100.
In general terms: Surface plasmon resonance follows binding to a sensor surface in real time, without labels.

For one molecule, Kd results are on record in patent publication US8883977B2, “MUC1 antibody” (Shionogi & Co., Ltd., priority 2010, dated 2014).

As a reminder, the Kd is a measure of binding affinity in units of concentration.

T1 sequence (P15941 136-155): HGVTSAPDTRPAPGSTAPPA

B1: 12D10: mouse monoclonal IgG2a anti-MUC1 antibody raised against STn(DT*R)-20-Cys-KLH; variable regions SEQ ID NOs 2 and 3 (protein)
chain 1: EVQLVESGGGLVQPGESLKLSCESNEYEFPSHDMSWVRKTPEKRLELVAAINSDGDNTYYPDTMERRFIISRDNSKKTLYLQMSSLNSADTALYYCARLTLRNWYFDVWGAGTTVTVSS
chain 2: DIVMSQSPSSLPVSVGEKVTMSCKSSQSLLYSTNQQNYLAWYQQKSGQSPKLLVYWASTRESGVPDRFTGSGSGTDFTLTISSLKAEDLAVYYCQQYYRYPPTFGAGTKLELNRA
As for B1, the Kd is 9.1 nM.
